Laboratory results published in publication PMC5476585.

Target: 25-nucleosome array (human)

magnesium-dependent self-association of 25-nucleosome arrays (0.25, 0.5 and 1 mM MgCl2), chromatin in the pellet fraction after centrifugation: > 90%
Substance: Fpr4 FKBP (280-392) (from UniProt Q06205 280-392) (domain or fragment)
